# From patent publication US20050100540A1, “Platelet-activating factor acetylhydrolase” (priority 1993, published 2005)
# Residue numbers refer to the chain shown, from its start. Names may count otherwise.
# B1: V279F: PAF-AH with phenylalanine for valine at position 279, mutation of PAF-AH deficient individuals, expressed in E. coli (protein)
# chain: MVPPKLHVLFCLCGCLAVVYPFDWQYINPVAHMKSSAWVNKIQVLMAAASFGQTKIPRGNGPYSVGCTDLMFDHTNKGTFLRLYYPSQDNDRLDTLWIPNKEYFWGLSKFLGTHWLMGNILRLLFGSMTTPANWNSPLRPGEKYPLVVFSHGLGAFRTLYSAIGIDLASHGFIVAAVEHRDRSASATYYFKDQSAAEIGDKSWLYLRTLKQEEETHIRNEQVRQRAKECSQALSLILDIDHGKPVKNALDLKFDMEQLKDSIDREKIAVIGHSFGGATFIQTLSEDQRFRCGIALDAWMFPLGDEVYSRIPQPLFFINSEYFQYPANIIKMKKCYSPDKERKMITIRGSVHQNFADFTFATGKIIGHMLKLKGDIDSNVAIDLSNKASLAFLQKHLGLHKDFDQWDCLIEGDDENLIPGTNINTTNQHIMLQNSSGIEKYN
# B2: pUC trp AH Met1: PAF-AH from entire coding sequence beginning at the initiating methionine, E. coli, trp promoter (protein, UniProt Q13093 1-441, looked up)
# chain: B1 chain with F279V
# modifications: full-length
# B3: C67S: PAF-AH cysteine to serine mutant expressed in E. coli (protein)
# chain: B1 chain with C67S, F279V
# B4: D338A: PAF-AH amino acid substitution product expressed in E. coli (protein)
# chain: B1 chain with F279V, D338A
# B5: S273A: PAF-AH amino acid substitution product expressed in E. coli (protein)
# chain: B1 chain with S273A, F279V
# B6: H351A: PAF-AH amino acid substitution product expressed in E. coli (protein)
# chain: B1 chain with F279V, H351A
# B7: C291S: PAF-AH cysteine to serine mutant expressed in E. coli (protein)
# chain: B1 chain with F279V, C291S
# B8: C334S: PAF-AH cysteine to serine mutant expressed in E. coli (protein)
# chain: B1 chain with F279V, C334S
# B9: D296A: PAF-AH amino acid substitution product expressed in E. coli (protein)
# chain: B1 chain with F279V, D296A
# B10: H395A, H399A: PAF-AH double amino acid substitution product expressed in E. coli (protein)
# chain: B1 chain with F279V, H395A, H399A
# B11: C407S: PAF-AH cysteine to serine mutant expressed in E. coli (protein)
# chain: B1 chain with F279V, C407S
# B12: D286A: PAF-AH amino acid substitution product expressed in E. coli (protein)
# chain: B1 chain with F279V, D286A
# B13: D304A: PAF-AH amino acid substitution product expressed in E. coli (protein)
# chain: B1 chain with F279V, D304A
# B14: S108A: PAF-AH amino acid substitution product expressed in E. coli (protein)
# chain: B1 chain with S108A, F279V
# B15: C229S: PAF-AH cysteine to serine mutant expressed in E. coli (protein)
# chain: B1 chain with C229S, F279V
# B16: D286N: PAF-AH amino acid substitution product expressed in E. coli (protein)
# chain: B1 chain with F279V, D286N
# B17: Wild type: Wild type human PAF-AH expressed in E. coli, reference of Table 8 (protein, UniProt Q13093 22-441, looked up)
# Platelet-activating factor …: FDWQYINPVAHMKSSAWVNKIQVLMAAASFGQTKIPRGNGPYSVGCTDLMFDHTNKGTFLRLYYPSQDNDRLDTLWIPNKEYFWGLSKFLGTHWLMGNILRLLFGSMTTPANWNSPLRPGEKYPLVVFSHGLGAFRTLYSAIGIDLASHGFIVAAVEHRDRSASATYYFKDQSAAEIGDKSWLYLRTLKQEEETHIRNEQVRQRAKECSQALSLILDIDHGKPVKNALDLKFDMEQLKDSIDREKIAVIGHSFGGATVIQTLSEDQRFRCGIALDAWMFPLGDEVYSRIPQPLFFINSEYFQYPANIIKMKKCYSPDKERKMITIRGSVHQNFADFTFATGKIIGHMLKLKGDIDSNVAIDLSNKASLAFLQKHLGLHKDFDQWDCLIEGDDENLIPGTNINTTNQHIMLQNSSGIEKYN
# Legend:
# [1] = PAF-AH activity of amino acid substitution products expressed in E. coli; format: biochemical; conditions: for PAF-AH activity: point mutants expressed in E. coli
# Excerpt: By site-directed mutagenesis and PCR, individual codons of the human PAF-AH coding sequence were modified to encode alanine residues and were expressed in E. coli. […] The distances between active site residues is similar for PAF-AH (Ser to Asp, 23 amino acids; Ser to His, 78 amino acids) and other lipases. […] Cysteines are often critical for the functional integrity of proteins because of their capacity to form disulfide bonds. The plasma PAF-AH enzyme contains five cysteines. To determine whether any of the five is critical for enzyme actvity, each cysteine was mutated individually to a serine and the resulting mutants were expressed in E. coli. As shown below in Table 8, a significant but not total loss of PAF-AH activity resulted from the conversion of either Cys229, r Cys291 to serine. Therefore, these cysteines appear to be necessary for full PAF-AH activity. Other point mutations had little or no effect on PAF-AH catalytic activity. In Table 8, “++++” represent wild type PAF-AH activity of about 40-60 U/ml/OD600, “+++” represents about 20-40 U/ml/OD600 activity, “++” represents about 10-20 U/ml/OD600 activity, “+” represents 1-10 U/ml/OD600 activity, and “−” indicates <1 U/ml/OD600 activity.
# To test whether this mutation crippled the enzyme, an E. coli expression construct containing the mutation was generated by methods similar to that described in Example 10. […] This amino acid substitution presumably results in a structural modification which causes the observed deficiency of activity and lack of immunoreactivity with the PAF-AH antibodies of the invention.
# [2] = PAF-AH activity of E. coli constructs with extended amino termini (lysate, media); format: biochemical; conditions: trp promoter
# Protocol: PAF-AH activity in transfectant supernatants was determined by the method of Stafforini et al. (1990), supra, with the following modifications. Briefly, PAF-AH activity was determined by measuring the hydrolysis of ^3H-acetate from [acetyl-^3H) PAF (New England Nuclear, Boston, Mass.). The aqueous free ^3H-acetate was separated from labeled substrate by reversed-phase column chromatography over octadecylsilica gel cartridges (Baker Research Products, Phillipsburg, Pa.). Assays were carried out using 10 μl transfectant supernatant in 0.1M Hepes buffer, pH 7.2, in a reaction volume of 50 μl. A total of 50 pmoles of substrate were used per reaction with a ratio of 1:5 labeled: cold PAF. Reactions were incubated for 30 minutes at 37° C. and stopped by the addition of 40 μl of 10M acetic acid. The solution was then washed through the octadecylsilica gel cartridges which were then rinsed with 0.1M sodium acetate. The aqueous eluate from each sample was collected and counted in a liquid scintillation counter for one minute. Enzyme activity was expressed in counts per minute.
# and encompassed the termination codon of sAH 406-3 and contained an EcoRV cloning site. PCR reactions were performed essentially as described in Example 3. The resulting PCR product was digested with XbaI and EcoRV and subcloned into a pBR322 vector containing the Trp promoter [deBoer et al., PNAS. 80:21-25 (1983)] immediately upstream of the cloning site. E. coli strain XL-1 Blue was transformed with the expression construct and cultured in L broth containing 100 μg/ml of carbenicillin. Transformants from overnight cultures were pelleted and resuspended in lysis buffer containing 50 mM Tris-HCl pH 7.5, 50 mM NaCl, 10 mM CHAPS, 1 mM EDTA, 100 μg/ml lysozyme, and 0.05 trypsin-inhibiting units (TIU)/ml Aprotinin. Following a 1 hour incubation on ice and sonication for 2 minutes, the lysates were assayed for PAF-AH activity by the method described in Example 4. E. coli transformed with the expression construct (designated trp AH) generated a product with PAF-AH activity.
# Several E. coli expression constructs were also evaluated which produce PAF-AH with extended amino termini. The N-terminus of natural plasma PAF-AH was identified as Ile42 by amino acid sequencing (Example 2). […] Acids Res., 14:4683-4690 (1986)]. Presumably a more classical signal sequence (M1-A17) is recognized by the cellular secretion system, followed by endoproteolytic cleavage. The entire coding sequence for PAF-AH beginning at the initiating methionine (nucleotides 162 to 1487 of SEQ ID NO: 7) was engineered for expression in E. coli using the trp promoter. […] Another expression construct, beginning at Val18 (nucleotides 213 to-1487 of SEQ ID NO: 7), produced active PAF-AH at about one third the level of the original construct.
Molecule,PAF-AH activity [1],also measured
B1,,PAF-AH activity of E. coli expression construct containing the mutation ([1]; control construct lacking the mutation fully active): no PAF-AH activity
B2,,"PAF-AH activity, Lysate ([2]; E. coli lysate): 3.1 U/ml/OD600; PAF-AH activity, Media ([2]; E. coli media): 0.003 U/ml/OD600"
B3,+++ (“+++” represents about 20-40 U/ml/OD600 activity),
B4,++++ (“++++” represent wild type PAF-AH activity of about 40-60 U/ml/OD600),
B5,− (“−” indicates <1 U/ml/OD600 activity),
B6,− (“−” indicates <1 U/ml/OD600 activity),
B7,+ (“+” represents 1-10 U/ml/OD600 activity),
B8,++++ (“++++” represent wild type PAF-AH activity of about 40-60 U/ml/OD600),
B9,− (“−” indicates <1 U/ml/OD600 activity),
B10,++++ (“++++” represent wild type PAF-AH activity of about 40-60 U/ml/OD600),
B11,+++ (“+++” represents about 20-40 U/ml/OD600 activity),
B12,− (“−” indicates <1 U/ml/OD600 activity),
B13,++++ (“++++” represent wild type PAF-AH activity of about 40-60 U/ml/OD600),
B14,++++ (“++++” represent wild type PAF-AH activity of about 40-60 U/ml/OD600),
B15,+ (“+” represents 1-10 U/ml/OD600 activity),
B16,++ (“++” represents about 10-20 U/ml/OD600 activity),
B17,++++ (“++++” represent wild type PAF-AH activity of about 40-60 U/ml/OD600),
